B1: HDV Ribozyme (parent)
chain: GGCCGGCAUGGUCCCAGCCUCCUCGCUGGCGCCGGCUGGGCAACAUUCCGAGGGGACCGUCCCCUCGGUAAUGGCGAAUGGGACCCA

The variants in this data set derive from B1. The experiment in a line: self-cleavage, relative activity (ratio to wild type); higher = more cleavage; co-transcriptional.
Take U23G G25C: the self-cleavage was 0.

On to U23G G31C, for which the self-cleavage was determined as 0.178.

In the case of U23C C62A, the self-cleavage was found to be 0.762.

As for U23C A43G, the self-cleavage was found to be 0.277.

Turning to U23C A43C, the self-cleavage worked out at 0.465.

Regarding U23C G76A, the self-cleavage was found to be 1.22.

U23C G76U: the self-cleavage came out at 1.14.

Take U23A G54A: the self-cleavage was 1.01.

With U23A G54C, the self-cleavage was found to be 1.15.

For the variant U23G C41G, the self-cleavage came out at 0.597.

Regarding U23G U46G, the self-cleavage was 0.356.

For the variant U23G C32A, the self-cleavage is 0.0652.

As to U23G C32U, the self-cleavage is 0.6.

In the case of U23G C24G, the self-cleavage is 0.16.

On to U23C G38U, for which the self-cleavage amounted to 0.175.

As to U23A C62U, the self-cleavage was determined as 0.966.

With U23A C58A, the self-cleavage came out at 1.12.

In the case of U23A C49U, the self-cleavage is 1.13.

Consider U23A A56G, for which the self-cleavage was determined as 1.02.

U23A G52A: the self-cleavage is 1.02.

Consider U23A G35U, for which the self-cleavage worked out at 0.431.

Take U23A G35C: the self-cleavage stood at 0.212.

As to U23C G34C, the self-cleavage was 0.172.

With U23G G68C, the self-cleavage was 0.482.

For U23G G68U, the self-cleavage stood at 0.969.

Turning to U23C G82C, the self-cleavage turned out to be 0.465.

With U23G C26A, the self-cleavage turned out to be 0.739.

Turning to U23A G39U, the self-cleavage was 0.696.

In the case of C24A, the self-cleavage is 0.767.

As for U23C C66A, the self-cleavage worked out at 0.982.

As for U23C C33U, the self-cleavage worked out at 0.697.

On to U23A A43G, for which the self-cleavage is 0.516.

Turning to U23A U37A, the self-cleavage came to 0.0997.

In the case of U23A U37C, the self-cleavage worked out at 1.08.

On to U23A C26U, for which the self-cleavage stood at 1.08.

Turning to U23A C26A, the self-cleavage amounted to 1.23.

For the variant U23C A77G, the self-cleavage stood at 0.587.

For the variant U23C A77U, the self-cleavage amounted to 0.353.

As to U23C G59A, the self-cleavage turned out to be 1.19.

On to U23C G35U, for which the self-cleavage amounted to 0.354.

U23G G29A: the self-cleavage came to 0.

In the case of U23G A70C, the self-cleavage was found to be 0.571.

Turning to U23G A56U, the self-cleavage was determined as 0.759.

With U23A G80C, the self-cleavage turned out to be 0.101.

Consider U23G G73A, for which the self-cleavage amounted to 0.259.

Consider U23G G73U, for which the self-cleavage worked out at 0.0604.

In the case of U23G G73C, the self-cleavage came to 0.0773.

U23C G54C: the self-cleavage was 0.673.

As to U23C A45C, the self-cleavage came to 0.573.

As for U23C C84A, the self-cleavage amounted to 0.911.

Regarding U23C C84U, the self-cleavage was 0.831.

In the case of U23G G50U, the self-cleavage was determined as 0.607.

For the variant U23A U72G, the self-cleavage is 0.302.

U23A A51U: the self-cleavage was found to be 0.923.

In the case of U23G A83U, the self-cleavage was found to be 0.107.

In the case of U23G A83C, the self-cleavage stood at 0.

As for U23G C33U, the self-cleavage turned out to be 0.569.

Turning to U23A A70C, the self-cleavage was 1.01.

As to U23G G59U, the self-cleavage turned out to be 0.886.

Regarding U23A G28C, the self-cleavage came to 0.142.

In the case of U23A G28A, the self-cleavage was 0.

With U23A G25U, the self-cleavage was 0.104.

As to U23G C58A, the self-cleavage was found to be 0.877.

For U23G U65G, the self-cleavage came out at 0.674.

Regarding U23G C85G, the self-cleavage was found to be 0.643.

As for U23G C85U, the self-cleavage worked out at 0.898.

U23C C85G: the self-cleavage worked out at 0.869.

Consider U23C G81A, for which the self-cleavage was found to be 0.591.

For the variant C24A A42C, the self-cleavage is 0.0639.

With C22U U47G, the self-cleavage is 0.58.

As for U23A G59C, the self-cleavage amounted to 0.811.

As for U23A G59U, the self-cleavage stood at 1.09.

Take U23A G59A: the self-cleavage amounted to 1.12.

Consider U23G A42C, for which the self-cleavage is 0.

In the case of U23C C32U, the self-cleavage turned out to be 0.587.

With U23C C32A, the self-cleavage was found to be 0.125.

As for U23C G40U, the self-cleavage stood at 0.587.

As to C24A A51C, the self-cleavage came to 0.516.

Consider U23C G39A, for which the self-cleavage was determined as 0.519.

On to U23C A56U, for which the self-cleavage is 0.987.

Take U23G U79G: the self-cleavage was found to be 0.192.

Take U23G U79C: the self-cleavage stood at 0.125.

As to U23A G50U, the self-cleavage amounted to 0.964.

As for U23G A77G, the self-cleavage amounted to 0.554.

With U23C C86U, the self-cleavage was 0.6.

U23C C86A: the self-cleavage turned out to be 0.857.

With U23G G52U, the self-cleavage was found to be 0.585.

As for U23G G28U, the self-cleavage was 0.0326.

Regarding U23G G28A, the self-cleavage is 0.0941.

Consider C22U U37C, for which the self-cleavage is 0.415.

Turning to U23C U37A, the self-cleavage stood at 0.0536.

Take U23C U37C: the self-cleavage is 1.15.

Consider U23G G76A, for which the self-cleavage amounted to 0.895.

In the case of U23A C41G, the self-cleavage was found to be 0.849.

As to U23A G40A, the self-cleavage stood at 1.14.

As to U23A A78G, the self-cleavage was determined as 0.697.

For the variant U23C G68A, the self-cleavage stood at 0.87.

With U23C G68U, the self-cleavage was determined as 0.897.

For the variant U23G C63U, the self-cleavage amounted to 0.469.

With U23C G52C, the self-cleavage worked out at 1.01.

Consider U23C A42G, for which the self-cleavage is 0.227.

For the variant U23A C48A, the self-cleavage came to 0.88.

Regarding U23G G54U, the self-cleavage worked out at 0.9.

For the variant U23G G54A, the self-cleavage worked out at 0.928.

On to U23C C44G, for which the self-cleavage stood at 0.185.

On to U23C C44A, for which the self-cleavage was determined as 0.462.

In the case of U23C G73C, the self-cleavage came to 0.269.

On to U23C G73A, for which the self-cleavage came out at 0.525.

On to U23C G73U, for which the self-cleavage came to 0.148.

U23C C63G: the self-cleavage came to 0.813.

As to U23A U47A, the self-cleavage stood at 0.877.

Consider U23A U47G, for which the self-cleavage stood at 0.748.

Consider U23G G82A, for which the self-cleavage is 0.0449.

Turning to U23G G82U, the self-cleavage is 0.17.

Consider U23G G74U, for which the self-cleavage was 0.0863.

In the case of U23G G74C, the self-cleavage came out at 0.188.

Consider U23C A70U, for which the self-cleavage stood at 0.917.

Consider U23C C64U, for which the self-cleavage is 0.786.

In the case of C24A A56C, the self-cleavage was determined as 0.966.

In the case of C24A A56U, the self-cleavage amounted to 0.872.

Consider U23A U27G, for which the self-cleavage was found to be 0.762.

In the case of U23A G76U, the self-cleavage amounted to 0.941.

In the case of U23C A71G, the self-cleavage is 0.9.

As to U23G C84A, the self-cleavage came out at 0.712.

Consider U23G C64G, for which the self-cleavage came to 0.95.

In the case of U23A C33U, the self-cleavage is 1.05.

Consider U23A C33A, for which the self-cleavage is 0.237.

U23A A45C: the self-cleavage was determined as 0.344.

On to U23C G53A, for which the self-cleavage was determined as 0.849.

Take U23C G67C: the self-cleavage was 0.969.

Take U23G C44U: the self-cleavage amounted to 0.325.

As for U23G A87C, the self-cleavage came to 0.799.

On to U23A C75G, for which the self-cleavage was determined as 0.116.

Regarding U23A C75A, the self-cleavage was 0.277.

On to U23G U60C, for which the self-cleavage was 0.831.

On to U23A G81U, for which the self-cleavage is 0.134.

As to U23A G81A, the self-cleavage was 0.305.

Take U23A G81C: the self-cleavage was determined as 0.306.

With U23G C75U, the self-cleavage turned out to be 0.089.

Regarding U23A C36G, the self-cleavage stood at 0.17.

Regarding U23C C30A, the self-cleavage was 0.369.

As for U23C U27C, the self-cleavage amounted to 0.65.

On to U23G C66G, for which the self-cleavage turned out to be 0.32.

Turning to U23A U65A, the self-cleavage is 0.778.

Take U23A A42U: the self-cleavage came to 0.57.

In the case of U23C, the self-cleavage was determined as 0.987.

For the variant U23G, the self-cleavage was found to be 0.731.

For the variant U23A, the self-cleavage was determined as 0.985.

Regarding U23A C84A, the self-cleavage was 0.944.

As for U23G U72C, the self-cleavage came out at 0.391.

Turning to U23A G74C, the self-cleavage stood at 0.323.

In the case of U23C U60A, the self-cleavage was 0.877.

Consider U23C U60C, for which the self-cleavage came out at 0.858.

As for U23G G34A, the self-cleavage came out at 0.0811.

For U23C A78C, the self-cleavage was determined as 0.231.

As to U23G G67C, the self-cleavage was determined as 0.59.

Take U23C A87C: the self-cleavage was determined as 0.929.

As for U23A C32U, the self-cleavage worked out at 0.929.

With U23A C32G, the self-cleavage came to 0.253.

As to U23A U60A, the self-cleavage came out at 0.98.

Regarding U23A U60G, the self-cleavage was 0.923.

As for U23A A87G, the self-cleavage was found to be 0.816.

Consider U23A A87C, for which the self-cleavage stood at 1.

For U23A A87U, the self-cleavage was found to be 0.99.

For the variant U23G U27G, the self-cleavage was determined as 0.529.

Regarding C22U U72C, the self-cleavage was 0.193.

Consider U23G G39C, for which the self-cleavage turned out to be 0.158.

(Values after the RNAGym collection of RNA variant scans (doi:10.7554/elife.80360).)
